Experimental data reported in paper PMC9508527, “Two-component carnitine monooxygenase from Escherichia coli: functional characterization, inhibition and mutagenesis of the molecular interface” (Bioscience Reports, 2022).

Legend:
Test in all cases: cell-based or functional assay
YeaW variant D221K = molecular target: T1, YeaW variant D221K (E. coli, UniProt P0ABR7 1-374, D221K)
T1 sequence (looked up): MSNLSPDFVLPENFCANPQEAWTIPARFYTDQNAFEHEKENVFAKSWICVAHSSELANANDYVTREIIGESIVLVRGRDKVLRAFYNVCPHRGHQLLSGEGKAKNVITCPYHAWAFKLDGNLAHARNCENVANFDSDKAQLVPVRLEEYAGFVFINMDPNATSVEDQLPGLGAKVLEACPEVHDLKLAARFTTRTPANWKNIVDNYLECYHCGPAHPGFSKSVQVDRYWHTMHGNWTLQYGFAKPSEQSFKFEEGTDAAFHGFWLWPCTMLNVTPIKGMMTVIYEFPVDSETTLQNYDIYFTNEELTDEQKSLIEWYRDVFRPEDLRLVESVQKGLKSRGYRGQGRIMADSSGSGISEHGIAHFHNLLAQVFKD

YeaW variant D135K = molecular target: T2, YeaW variant D135K (E. coli, UniProt P0ABR7 1-374, D135K)
T2 sequence (looked up): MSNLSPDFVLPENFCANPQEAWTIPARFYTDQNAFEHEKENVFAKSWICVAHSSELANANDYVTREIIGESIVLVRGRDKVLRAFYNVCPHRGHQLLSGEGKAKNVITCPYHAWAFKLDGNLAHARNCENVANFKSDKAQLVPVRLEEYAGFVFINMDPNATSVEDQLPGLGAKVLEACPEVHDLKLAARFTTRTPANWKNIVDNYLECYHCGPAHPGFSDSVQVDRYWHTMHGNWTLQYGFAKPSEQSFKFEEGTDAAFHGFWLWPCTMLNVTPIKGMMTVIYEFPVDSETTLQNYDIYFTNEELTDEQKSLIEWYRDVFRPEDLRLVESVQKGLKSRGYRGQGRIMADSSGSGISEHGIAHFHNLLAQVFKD

YeaW variant K138E = molecular target: T3, YeaW variant K138E (E. coli, UniProt P0ABR7 1-374, K138E)
T3 sequence (looked up): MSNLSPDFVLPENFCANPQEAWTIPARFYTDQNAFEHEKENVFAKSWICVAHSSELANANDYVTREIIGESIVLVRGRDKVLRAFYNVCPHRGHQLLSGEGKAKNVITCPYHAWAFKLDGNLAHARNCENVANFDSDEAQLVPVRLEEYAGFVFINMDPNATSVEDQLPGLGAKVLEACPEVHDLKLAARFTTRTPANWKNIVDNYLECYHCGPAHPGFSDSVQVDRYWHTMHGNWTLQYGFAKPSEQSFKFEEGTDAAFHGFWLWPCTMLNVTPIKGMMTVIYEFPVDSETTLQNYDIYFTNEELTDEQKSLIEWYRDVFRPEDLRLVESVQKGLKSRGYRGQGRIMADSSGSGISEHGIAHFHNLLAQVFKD

YeaW variant E330K = molecular target: T4, YeaW variant E330K (E. coli, UniProt P0ABR7 1-374, E330K)
T4 sequence (looked up): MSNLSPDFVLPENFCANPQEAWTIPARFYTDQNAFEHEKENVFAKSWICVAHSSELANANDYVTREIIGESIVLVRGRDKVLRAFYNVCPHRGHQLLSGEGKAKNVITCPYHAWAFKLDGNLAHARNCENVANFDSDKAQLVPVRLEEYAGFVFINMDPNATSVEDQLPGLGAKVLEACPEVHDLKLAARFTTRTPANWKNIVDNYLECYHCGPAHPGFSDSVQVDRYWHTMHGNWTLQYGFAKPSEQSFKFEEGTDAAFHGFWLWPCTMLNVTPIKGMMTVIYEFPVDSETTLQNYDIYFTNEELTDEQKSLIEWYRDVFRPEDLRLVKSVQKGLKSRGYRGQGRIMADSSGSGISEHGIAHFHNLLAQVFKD

YeaW variant K104S = molecular target: T5, YeaW variant K104S (E. coli, UniProt P0ABR7 1-374, K104S)
T5 sequence (looked up): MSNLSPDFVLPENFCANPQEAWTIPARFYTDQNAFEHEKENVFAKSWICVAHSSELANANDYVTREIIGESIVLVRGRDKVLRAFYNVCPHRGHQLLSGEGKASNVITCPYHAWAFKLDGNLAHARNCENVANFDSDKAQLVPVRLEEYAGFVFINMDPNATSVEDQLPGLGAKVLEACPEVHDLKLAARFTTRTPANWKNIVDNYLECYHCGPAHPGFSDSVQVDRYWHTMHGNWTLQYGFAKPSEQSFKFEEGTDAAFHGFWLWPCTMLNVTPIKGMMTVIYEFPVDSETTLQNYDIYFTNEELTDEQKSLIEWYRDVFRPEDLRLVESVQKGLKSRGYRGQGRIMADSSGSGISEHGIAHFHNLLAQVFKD

YeaW variant K104E = molecular target: T6, YeaW variant K104E (E. coli, UniProt P0ABR7 1-374, K104E)
T6 sequence (looked up): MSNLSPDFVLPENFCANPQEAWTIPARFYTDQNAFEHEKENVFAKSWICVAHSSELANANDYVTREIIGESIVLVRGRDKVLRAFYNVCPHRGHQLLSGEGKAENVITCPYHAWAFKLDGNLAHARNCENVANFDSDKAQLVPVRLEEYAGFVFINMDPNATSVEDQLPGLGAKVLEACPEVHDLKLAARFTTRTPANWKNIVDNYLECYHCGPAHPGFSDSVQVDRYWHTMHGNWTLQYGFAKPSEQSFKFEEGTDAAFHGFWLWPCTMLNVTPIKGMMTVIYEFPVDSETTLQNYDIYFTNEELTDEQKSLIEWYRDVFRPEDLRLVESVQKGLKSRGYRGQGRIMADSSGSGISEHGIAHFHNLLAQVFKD

YeaW variant R83K = molecular target: T7, YeaW variant R83K (E. coli, UniProt P0ABR7 1-374, R83K)
T7 sequence (looked up): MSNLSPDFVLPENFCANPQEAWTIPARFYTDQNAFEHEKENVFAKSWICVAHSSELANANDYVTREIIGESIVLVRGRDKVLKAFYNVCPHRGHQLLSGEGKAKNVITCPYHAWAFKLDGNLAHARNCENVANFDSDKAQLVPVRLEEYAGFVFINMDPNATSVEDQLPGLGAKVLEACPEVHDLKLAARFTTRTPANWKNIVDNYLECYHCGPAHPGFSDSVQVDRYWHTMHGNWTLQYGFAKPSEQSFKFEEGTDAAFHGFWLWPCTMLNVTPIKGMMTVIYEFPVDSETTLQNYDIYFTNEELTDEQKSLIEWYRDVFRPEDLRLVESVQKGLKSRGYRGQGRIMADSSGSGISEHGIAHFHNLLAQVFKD

B1: YeaX, reductase component of carnitine monooxygenase from E. coli (enzyme, UniProt P76254 1-321, looked up)
chain: MSDYQMFEVQVSQVEPLTEQVKRFTLVATDGKPLPAFTGGSHVIVQMSDGDNQYSNAYSLLSSPHDTSCYQIAVRLEENSRGGSRFLHQQVKVGDRLTISTPNNLFALIPSARKHLFIAGGIGITPFLSHMAELQHSDVDWQLHYCSRNPESCAFRDELVQHPQAEKVHLHHSSTGTRLELARLLADIEPGTHVYTCGPEALIEAVRSEAARLDIAADTLHFEQFAIEDKTGDAFTLVLARSGKEFVVPEEMTILQVIENNKAAKVECLCREGVCGTCETAILEGEADHRDQYFSDEERASQQSMLICCSRAKGKRLVLDL
- L-carnitine depletion activity (wild type = 100%) (YeaW variant D221K): 81%
- O2 depletion activity (wild type = 100%) (YeaW variant D221K): 76%
- L-carnitine depletion activity (wild type = 100%) (YeaW variant D135K): 94%
- O2 depletion activity (wild type = 100%) (YeaW variant D135K): 97%
- L-carnitine depletion activity (wild type = 100%) (YeaW variant K138E): 100%
- O2 depletion activity (wild type = 100%) (YeaW variant K138E): 102%
- L-carnitine depletion activity (wild type = 100%) (YeaW variant E330K): 55%
- O2 depletion activity (wild type = 100%) (YeaW variant E330K): 67%
- L-carnitine depletion activity (wild type = 100%) (YeaW variant K104S): 70%
- O2 depletion activity (wild type = 100%) (YeaW variant K104S): 66%
- L-carnitine depletion activity (wild type = 100%) (YeaW variant K104E): 6%
- O2 depletion activity (wild type = 100%) (YeaW variant K104E): 12%
- L-carnitine depletion activity (wild type = 100%) (YeaW variant R83K): 76%
- O2 depletion activity (wild type = 100%) (YeaW variant R83K): 79%
